Reference: patent US20250049935

Columns and labels:
[1] = target: DNase I (UniProt P00639); test: cleavage_in_vitro; conditions: 10 mM Tris-HCl pH 7.5, 2.5 mM MgCl2, 0.5 mM CaCl2, 100 nM DNA, 0.6 unit/mL
[2] = target: alpha thrombin (Homo sapiens) (UniProt P00734+P00734); test: MST; conditions: two HD1 aptamers flanking a poly(serinol phosphodiester) backbone of 30 amine-serinol units (X), grafted with 10 kDa PEG side chains; 20 mM HEPES pH 7.4, 150 mM NaCl, 2 mM CaCl2, 0.05% Tween; 10 nM thrombin
[3] = target: thrombin (in C57BL/6 mouse plasma) (Mus musculus) (UniProt P19221+P19221); test: inhibition; conditions: two HD1 aptamers flanking a poly(serinol phosphodiester) backbone of 30 amine-serinol units (X), grafted with 10 kDa PEG side chains; in vivo i.v. 15 nmol in C57BL/6 mice; also 3-fold PT; neutralized by LNA antidote
[4] = target: thrombin (in pooled normal plasma) (Homo sapiens) (UniProt P00734+P00734); test: inhibition; conditions: two HD1 aptamers flanking a poly(serinol phosphodiester) backbone of 30 amine-serinol units (X), grafted with 10 kDa PEG side chains; 5 uM in human plasma; almost three-fold longer clotting; reversed by LNA antidote

DNase I, sequence (P00639 23-282): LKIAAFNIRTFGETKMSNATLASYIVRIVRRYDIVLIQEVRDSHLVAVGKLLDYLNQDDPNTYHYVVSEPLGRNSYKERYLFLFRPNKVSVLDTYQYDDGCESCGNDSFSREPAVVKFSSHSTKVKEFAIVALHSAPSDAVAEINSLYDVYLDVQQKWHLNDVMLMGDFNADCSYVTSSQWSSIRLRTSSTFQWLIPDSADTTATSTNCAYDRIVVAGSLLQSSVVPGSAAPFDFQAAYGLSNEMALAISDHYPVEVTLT

With “TTTTTTTTTTTTTTT (double strand) [dT15:dA15 duplex]” the activity [1] was 13.9 min.
“GGTTGGTGTGGTTGGTTTTTNNNNNNNNNNNNNNNNNNNNNNNNNNNNNNTTTTTGGTTGGTGTGGTTGG [PSP pacHD1]” gave a Kd [2] of 6.9 nM, an activity (fold aPTT vs blank) [3] of 5 and an activity (fold aPTT vs vehicle) [4] of 3.
“NNNNNNNNNNNNNNNTTTTTTTTTTTTTTT / AAAAAAAAAAAAAAA [Doubler PSP pacDNA:dA15 duplex]” gave an activity ([1]; symmetric doubler with two 15-unit poly(serinol phosphodiester) arms grafted with 10 kDa PEG) of 38.1 min.
“TTTTTTTTTTTTTTTNNNNNNNNNNNNNNNNNNNNNNNNNNNNNNTTTTTTTTTTTTTTT / AAAAAAAAAAAAAAA [PSP pacDNA:dA15 duplex]” gave an activity ([1]; poly(serinol phosphodiester) backbone of 30 units grafted with 10 kDa PEG) of 32.2 min.
